{"source": "paper PMC12191217", "about": "“Aptamer Development for SARS-CoV-2 and Omicron Variants Using the Spike Protein Receptor Binding Domain as a Potential Diagnostic Tool and Therapeutic Agent”", "data": [{"target": "SARS-CoV-2 spike RBD (Wuhan-Hu-1), His-tagged (SARS-CoV-2 (Wuhan-Hu-1 strain), UniProt P0DTC2 319-541)", "test": "BLI; 3 mM MgCl2; 10 mM phosphate pH 7.4, 137 mM NaCl, 2.7 mM KCl, 3 mM MgCl2, 0.01% BSA, 0.002% Tween 20, 25 °C; aptamer 175-1400 nM, n=2", "conditions": "protein: commercial; tags: His", "units": {"Kd": "nM"}, "values": [{"binder": "GAUUUUAGUCAUAGUCAGUUAGGUGGUUUACAUCUACUGA (structured_RNA)", "note": "[Aptamer 11]", "Kd": "425 ± 146"}, {"binder": "GAUGGUAAUGCUGCUAUCAGCGAUUAUGACUACUAUCGUU (structured_RNA)", "note": "[Aptamer 62]", "Kd": "285 ± 141"}, {"binder": "CACUACCAAGAGUGUGUUAGAGGUACAACAGUACUUUUAA (structured_RNA)", "note": "[Aptamer 23]", "Kd": "29300 ± 10400"}, {"binder": "GCUGGUGCUGCAGCUUAUUAUGUGGGUUAUCUUCAACCUA (structured_RNA)", "note": "[Aptamer 22]", "Kd": "5450 ± 1700"}, {"binder": "GUUUCGGAAGAGACAGGUACGUUAAUAGUUAAUAGCGUAC (structured_RNA)", "note": "[Aptamer 40]", "Kd": "571 ± 173"}]}]}
